Measured values as given in the RNAGym collection of RNA variant scans (doi:10.7554/elife.90254).

B1: OR4K15 (parent)
chain: GUUAACGGUCAUAGGCCAUGGAAACUAGGAGCACCAUUUCGCUGCCAGUGAAGAAAUGAACAAAGAAAAUCUGGGCCAGGCAGGCAUCAAAAGAAAUAGUCUUGCGCUCAACCAGAAAGUCUGUAAUCAUUUUAAGGGUA

Variants of: B1
Experiment: self-cleavage, relative activity (ratio to wild type); higher = more cleavage; in vitro, sequencing; the parent is a self-cleaving ribozyme

Point of comparison: A18G U37C, self-cleavage 1.04. Against it:
- C17U A30G — lower, 1.03
- U19A U120C — lower, 0.79
- A18G U127A — higher, 1.64
- A18G U127C — higher, 1.53
- A18G A95G — higher, 1.38
- A18U A94G — higher, 1.06
- A18U A92G — the same, 1.04
- U19C A86G — higher, 1.37
- U19A A82G — lower, 0.68
- A18U C42U — higher, 1.18
- G15C G73A — lower, 0.17
- C17U U100A — lower, 0.96
- A18G U43C — higher, 1.52
- A18G U43A — higher, 1.23
- A18U A78U — lower, 0.45
- A18U A27C — higher, 1.5
- C16U A23U — higher, 1.24
- A18U U122A — lower, 0.64
- A18U U122C — lower, 0.87
- C17A A56G — higher, 2.2
- C16U A22C — higher, 1.53
- C16U A22U — higher, 1.32
- C16U A54G — lower, 0.87
- A18U A64G — lower, 0.9
- U19A A64G — lower, 1.03
- A18U G28A — higher, 1.78
- A18G G44A — higher, 1.66
- A18U U70C — the same, 1.04
- U19C A92U — higher, 1.93
- U19A U38C — higher, 1.98
- A18U A117G — higher, 1.72
- A18C A111G — lower, 0.02
- C16A A22G — higher, 1.29
- G15A A118G — lower, 0.47
- G15U A82U — lower, 0.23
- G15A A62G — lower, 0.1
- A18G A92G — higher, 1.3
- U19C A52G — higher, 1.35
- A18U A140G — higher, 1.49
- A18U A140U — higher, 1.33
- U19A A111C — lower, 0.01
- U19A A111G — lower, 0.02
- A18G A64G — higher, 1.11
- A18G A64U — higher, 1.92
- G15A A68G — higher, 1.73
- A18U A90U — higher, 1.13
- A18G A24U — higher, 1.6
- A18G A24G — lower, 1
- A18U A62U — higher, 1.56
- A18U A62G — higher, 1.37
- A18U A62C — lower, 0.88
- A18U A51U — higher, 1.24
- A18U A51G — higher, 1.4
- U19A A78C — lower, 0.29
- U19A A78U — lower, 0.35
- G15A U122C — lower, 0.95
- C16U G73A — lower, 0.15
- A18C U57C — lower, 0
- G15A A95G — higher, 1.73
- C16A G83U — lower, 0.41
- A18U A135G — higher, 1.36
- C16U G137A — lower, 0.85
- A18C U43C — higher, 1.44
- G15U U72G — lower, 0.36
- A18G A68G — higher, 1.16
- C16U A94U — higher, 1.89
- A18U G79A — lower, 0.05
- U19A U70C — higher, 1.06
- G15U U38A — higher, 1.8
- C17U A47U — higher, 1.43
- C16U A66U — higher, 1.27
- A18G A36G — higher, 1.4
- C17U A66G — higher, 1.68
- G15A A24G — higher, 1.4
- U19C A69C — higher, 1.71
- U19C A69G — higher, 1.05
- U19C A69U — higher, 1.62
- G15A A86G — higher, 1.6
- A18G A89G — higher, 2.05
- A18G A126U — lower, 0.44
- A18G A126C — lower, 0.48
- A18G A91U — higher, 1.94
- U19C A78U — lower, 0.28
- A18U U139C — higher, 1.45
- A18G G48A — higher, 1.81
- A18G U87G — lower, 0.98
- G15U G136A — higher, 2.24
- A18C U103C — lower, 0.86
- A18U C88U — lower, 0.43
- A18G G79A — lower, 0.24
- U19C A55G — higher, 1.17
- U19C A30U — lower, 1.02
- A18U A114G — lower, 0.35
- A18G A90U — higher, 2.38
- A18G A90G — higher, 1.36
- A18G A55G — higher, 1.07
- A18G A140G — lower, 0.55
- A18G U72C — lower, 0.38
- A18G U72A — lower, 0.37
- A18U G41A — higher, 1.09
- C17U U43A — higher, 1.18
- A18G A117G — lower, 0.59
- A18G U38G — higher, 1.56
- C16A A56C — lower, 0.52
- U19C A23G — lower, 0.88
- C17A A59U — higher, 1.14
- C16U U39G — higher, 1.27
- C16U A111G — lower, 0.05
- U19C A91G — higher, 1.09
- C16U A78G — lower, 0.62
- A18G U19A — higher, 1.57
- A18G U19C — higher, 1.06
- A18U U49G — lower, 1.01
- C16U A96G — higher, 1.27
- A18G A59C — higher, 1.7
- A18G A59G — higher, 1.19
- A18G A59U — higher, 1.65
- A18U U38C — higher, 1.28
- G15A A126G — higher, 1.51
- C17U U108C — lower, 0
- A18U A118G — lower, 0.6
- A18G A56G — higher, 1.27
- A18C A140G — lower, 0.94
- A18G C101U — lower, 0.85
- G15A A129G — higher, 1.19
- G15C A78U — lower, 0.37
- A18G U57G — higher, 1.21
- U19C A56G — higher, 1.29
- C16A U39A — higher, 1.23
- G15U U87A — higher, 1.44
- A18G U131C — higher, 1.63
- U19A A67G — higher, 1.84
- A18C U130C — lower, 0.96
- C17A A78G — lower, 0.1
- G15A A51U — higher, 1.78
- G15A A51G — higher, 1.52
- U19A A134U — lower, 0.89
- C16U U38C — lower, 0.76
- G15C A51U — higher, 1.07
- C16U U103C — lower, 0.77
- A18G G41A — higher, 1.53
- A18U A95G — higher, 1.96
- C16U A140G — higher, 1.64
- U19A A92U — higher, 2.13
- U19A A92G — higher, 1.47
- A18U A47G — higher, 1.05
- A18U A89G — higher, 1.59
- A18U A89C — lower, 0.9
- A18C A95G — higher, 2.19
- A18G A63G — higher, 1.17
- U19A A68G — higher, 1.64
- G15A U120A — higher, 1.72
- G15A U120C — lower, 1.01
- A18G A47U — higher, 1.1
- A18G U49A — higher, 1.54
- C16G A68G — lower, 0.69
- C16U A110U — lower, 0.72
- A18U A30G — higher, 1.39
- A18G A129G — higher, 1.25
- A18U A110C — lower, 0.23
- C16U C85U — higher, 1.15
- A18G G104A — lower, 0.02
- A18C A96U — lower, 0.98
- A18U A63G — lower, 0.84
- G15C U108C — lower, 0.03
- A18G A66G — higher, 1.81
